Earlier results, collected in article PMC9206673.

Assays:
[1] = molecular target: neurotransmitter receptor peptide

Sequence of Gephyrin (Q8BUV3 whole entry): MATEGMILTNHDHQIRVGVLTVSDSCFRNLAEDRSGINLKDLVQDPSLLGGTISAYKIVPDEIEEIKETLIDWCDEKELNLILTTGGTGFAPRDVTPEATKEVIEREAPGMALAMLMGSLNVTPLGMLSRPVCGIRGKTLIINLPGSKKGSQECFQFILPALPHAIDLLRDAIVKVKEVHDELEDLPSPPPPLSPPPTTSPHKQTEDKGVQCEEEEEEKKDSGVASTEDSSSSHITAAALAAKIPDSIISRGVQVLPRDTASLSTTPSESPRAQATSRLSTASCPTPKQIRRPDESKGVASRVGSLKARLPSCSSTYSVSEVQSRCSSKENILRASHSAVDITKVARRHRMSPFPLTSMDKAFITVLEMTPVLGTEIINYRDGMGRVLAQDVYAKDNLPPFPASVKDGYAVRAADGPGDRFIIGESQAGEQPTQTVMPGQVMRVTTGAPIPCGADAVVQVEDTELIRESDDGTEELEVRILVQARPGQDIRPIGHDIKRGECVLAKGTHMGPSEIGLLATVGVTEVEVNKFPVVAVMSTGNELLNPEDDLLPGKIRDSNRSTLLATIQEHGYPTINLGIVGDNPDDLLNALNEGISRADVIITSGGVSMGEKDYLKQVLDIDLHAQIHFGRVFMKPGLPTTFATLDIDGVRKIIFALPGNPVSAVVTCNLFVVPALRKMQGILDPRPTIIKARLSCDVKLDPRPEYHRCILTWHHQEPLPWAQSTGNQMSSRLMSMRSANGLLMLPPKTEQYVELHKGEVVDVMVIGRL

Gephyrin (from UniProt Q8BUV3)
Kd [1]: 140 nM | Kd (gephyrin-binding peptide): 0.14 nM
